What was measured:
[1] = target: T1, SARS-CoV-2 spike protein (nCoV-S Spike Protein Trimer, NIH) (SARS-CoV-2, UniProt P0DTC2 14-1208); assay: HT-SPR (Carterra LSA), mAb on chip, SARS-CoV-2 spike protein titrated, 25 C
T1 construct: also called S protein

[2] = target: T1, SARS-CoV-2 spike protein (nCoV-S Spike …); assay: HT-SPR (Carterra LSA), mAb on chip, SARS-CoV-2 spike protein titrated, 37 C
[3] = target: T2, SARS-CoV-2 full length spike protein (wild type) (SARS-CoV-2, UniProt P0DTC2 14-1208); assay: multiplexed bead assay, flow cytometry; column D
T2 construct: also called SARS-CoV-2 spike; S protein

[4] = target: NCP-CoV (2019-nCoV) Spike Protein (S1 Subunit, His Tag) (SARS-CoV-2, UniProt P0DTC2 16-685); assay: HT-SPR (Carterra LSA), mAb on chip, S1 subunit (His tag) in solution, 25 C
[5] = target: 2019 nCoV Spike Protein (RBD, His tag) (SARS-CoV-2, UniProt P0DTC2 329-520); assay: HT-SPR (Carterra LSA), mAb on chip, RBD (His tag) in solution, 25 C
SARS-CoV-2 spike protein = SARS-CoV-2 spike protein (SARS-CoV-2, UniProt P0DTC2 14-1208); assay: HT-SPR, Carterra LSA; mAb coupled to chip, antigen injected; 1:1 fit
[6] = target: T3, SARS-CoV-2 full length spike protein (wild type), expressed on the surface of transiently transfected CHO … (SARS-CoV-2, UniProt P0DTC2 14-1273); assay: flow cytometry, CHO cells with full-length WT SARS-CoV-2 spike
T3 construct: also called SARS-CoV-2 spike (S) protein; Wild-Type SARS-CoV-2

Binder | Kd [1] [nM] | Kd [2] [nM] | Kd [4] [nM] | other results
antibody 364 (antibody, V domains shown) VH: EVQLVESGGGLVQPGRSLRLSCTASGFTFGDYAMSWFRQAPGKGLEWVGFIRSKAYGGTTEYAASVKGRFTISRDDSKSIAYLQMNSLKTEDTAVYYCTRFGIDYDYIWGSYRYTTLFDYWGQGTLVTVSS VL: not shown | 7.61 | 0.0233 | – | –
antibody 332 (antibody, V domains shown) VH: QVTLRESGPALVKPTQTLTLTCTFSGFSLSTSGMCVSWIRQPPGKALEWLALIDWDDDKYYSTSLKTRLTISKDTSKNQVVLTMTNMDPVDTATYYCARIHDDILTGYHYVDYWGQGTLVTVSS VL: not shown | – | – | – | binding result [3]: no binding
antibody 445 (antibody, V domains shown) VH: QVQLVQSGAEVKKPGASVKVSCKASGYTFTSYYMHWVRQAPGQGLEWMGIINPSGGSTSYAQKFQGRVTMTRDTSTSTVYMELSSLRSEDTAVYYCARDPTEVGATSEYYYYGMDVWGQGTTVTVSS VL: not shown | – | – | 613 | –
antibody 343 (antibody, V domains shown) VH: QVQLVESGGDVVQPGTSLRLSCAASGFTFNNYGFHWVRQAPGKGLEWVALISSDGASTHYADSVKGRFTISRDSSVNTLYLQMNSLSLEDTAVYYCATGHCGTTCYYFDYWGQGTLVSVSS VL: DIQVTQSPSYLSASVGDRVTITCRASQTISTFLQWYQQKVGKAPKLLIYAASTLQSGVPSRFSGSGSGTDFSLTISSLQPEDFATYYCQQSYSAPLSFGGGTKVEIK | – | – | – | binding result [3]: no binding
antibody 506 (antibody, V domains shown) VH: QITLKESGPTLVKPTQTLTLTCTFSGFSLSTSGVGVGWIRQPPGKALEWLALIYWDDDKRYSPSLKSRLTITKDTSKNQVVLTMTNMDPVDTATYYCAHHSLSSIFDYWGQGTLVTVSS VL: QSALTQPASVSGSPGQSITISCTGTSSDVGDYNYVSWYQQHPGKAPKLMIYEVSNRPSGVSNRFSGSKSGNTASLTISGLQAEDEADYYCSSYTSSSTVFGGGTKLTVLG | 0.0491 | 0.0693 | 90.9 | Kd [5]: 14.7 nM
antibody 494 (antibody, V domains shown) VH: EVQLVESGGGLVQPGGSLRLSCAASGFTVSSNYMSWVRQAPGKGLEWVSVIYSGGSTFYADSVKGRFTISRDNSKNTLYLQMNSLRAEDTAVYYCARDSGDQLLDYWGQGTLVTVSS VL: DIQLTQSPSFLSASVGDRVTITCRASQGISSYLAWYQQKPGKAPKLLIYAASTLQSGVPSRFSGSGSGTEFTLTISSLQPEDFATYYCQQLNSYPPFTFGPGTKVDIKR | 0.0835 | 0.225 | 189 | Kd [5]: 13.5 nM
antibody 462 (antibody, V domains shown) VH: QVQLVESGGGVVQPGRSLRLSCAASGFTFSSYGMHWVRQAPGKGLEWVAVIWYDGNNKYYADSVKGRFTISRDNSKNTLYLQMNSLRAEDTAVYYCAKDPTWFGELPSYYYYGMDVWGQGTTVTVSS VL: not shown | 7.58 | 4.62 | – | –
antibody 328 (antibody, V domains shown) VH: QVQLQESGPGLVKPSGTLSLTCAVSGGSISSSNWWSWVRQPPGKGLEWIGEIYHSGSTNYNPSLKSRVTISVDNSKNQFSLKLSSVTAADTAVYYCARESVAAAGISYYYYGMDVWGQGTTVTVSS VL: DIQMTQSPSSLSASVGDRVTITCRASQGIRNDLGWYQQKPGKAPKRLIYAASSLQSGVPSRFSGSGSGTEFTLTVSGLQPEDFATYYCLQYNSSPLTFGGGTKVEIK | – | – | – | binding result [3]: no binding
antibody 574 (antibody, V domains shown) VH: QVQLVESGGGVVQPGRSLRLSCAASGFTFSSYAMHWVRQAPGKGLEWVAVISYDGSNKYYADSVKGRFTISRDNSKNTLYLQMNSLRAEDTAVYYCARTDRYYGSGAHFDYWGQGTLVTVSS VL: not shown | – | – | – | Kd (SARS-CoV-2 spike protein): 2.28 nM; koff (SARS-CoV-2 spike protein): 0.0003 s⁻¹; kon (SARS-CoV-2 spike protein): 132000 M⁻¹ s⁻¹
antibody 351 (antibody, V domains shown) VH: HVQLVESGGGVVQPGRSLRLSCAASGFISRNYGMEWVRQAPGQGLEWVAGIWYDGSKKYYADSVKGRFTISRDTSKNTLFLQMDSLRAEDTAVFYCATATKTFCGGDCPPGGMDVWGQGTTVTVST VL: SYVLTQPPSVSVAPGKTAWITCVGNNIESESVHWYQQRPGQAPVLVIYYDSDRPSGIPERFFGSNSGNTATLTISRVEAGDEADYYCQVWDSNSDLMVFGGGTKLTVL | – | – | – | binding result [3]: no binding
antibody 443 (antibody, V domains shown) VH: QMRLEESGPGLVKPSETLSLTCTVAGGSITSSDYFWGWLRQSPGKGLEWIASTYHGGSIQYHPALKSRVTISVDASKNQISLRLSSVTAADTAVYYCARDRGDDGPMGTYYFDHWGQGALVTVSS VL: QSVLTQPPSVSGAPGQSVTISCAGSSSNIGAGHDVHWYQQIPGTAPKLLICGNTNRPSGVPERFSGSRSGTSASLAITGLQAEDEAVYYCQSYDPSHVFFGTGTKLTVL | – | – | – | binding result [6]: no binding
antibody 333 (antibody, V domains shown) VH: QVHLVESGGGVVLPGRSLRLSCSASQFIFSNYDMHWVRQSPGMGLEWVAGISSDGSDKYYIDSVRGRFTISRDNAKNTLFLQMNSLTTEDTAVYSCAKGGGKFGQYWGRGTLVTVSS VL: AIQMTQSPSSLSASVGDRVTITCRASQVIRNDLAWFQQKPGEAPNLLVYSASNLQSGVPSRFSGSGSGTDFTLTISSLQPEDFATYYCLQDYSYPYTFGQGTKLDMK | – | – | – | binding result [3]: no binding
antibody 408 (antibody, V domains shown) VH: QVQLVESGGGVVQPGRSLRLSCAASGFTFSSYAMHWVRQAPGKGLEWVAVISYDGSNKYYADSVKGRFTISRDNSRNTLYLQMNSLRAEDTAVYYCAKGADTPHYSGYDFLSVGYYYYGMDVWGQGTTVTVSS VL: DIQMTQSPSSLSASVGDRVTITCRASQSISSYLNWYQQKPGKAPKLLIYAASSFQSGVPSRFSGSRSGTDFTLTISSLQPEDFATYYCQQSYSAPFTFGPGTKVDIKR | – | – | 171 | –
antibody 414 (antibody, V domains shown) VH: QVQLVQSGAEVKKPGASVKVSCKASGYTFTSYYMHWVRQAPGQGLEWMGIINPSGGSTSYAQKFQGRVTMTRDTSTSTVYMELSSLRSEDTAVYYCARDPPGRDFWSGYYFGAPDYYYYYGMDVWGQGTTVTVSS VL: DIQMTQSPSSLSASVGDRVTITCRASQGISNYLAWFQQKPGKAPKSLIYAASSLQSGVPSKFSGSGSGTDFTLTISSLQPEDFATYYCQQYNSYPYTFGQGTKLEIKR | 7.93 | 5.21 | – | –
antibody 570 (antibody, V domains shown) VH: QVQLQESGPGLVKPSQTLSLTCTVSGGSISSGSYYWSWIRQPAGKGLEWIGRIYTSGSTNYNPSLKSRVTISVDTSKNQFSLKLSSVTAADTAVYYCAREGQWLYRFDYWGQGTLVTVSS VL: not shown | – | – | – | Kd (SARS-CoV-2 spike protein): 0.0454 nM; koff (SARS-CoV-2 spike protein): 1e-05 s⁻¹; kon (SARS-CoV-2 spike protein): 220000 M⁻¹ s⁻¹
antibody 562 (antibody, V domains shown) VH: QVQLVESGGGVVQPGRSLRLSCAASGFTFSSYAMHWVRQAPGKGLEWVAVISYDGSNKYYADSVKGRFTISRDNSKNTLYLQMNSLRAEDTAVYYCARASSGGYQGPFDPWGQGTLVTVSS VL: QSALTQPASVSGSPGQSITISCTGTSSDVGGYNYVSWYQQHPGKAPKLMIYDVSNRPSGVSNRFSGSKSGNTASLTISGLQAEDEADYYCSSYTSSSTLLYVFGTGTKVTVLG | 0.173 | 0.138 | – | –
antibody 292 (antibody, V domains shown) VH: EVQLVESGGGLIQPGGSLRLSCAASGFTVSSNYMSWVRQAPGKGLEWVSVIYSGGSTYYADSVKGRFTISRDNSKNTLYLQMNSLRAEDTAVYYCARDLQGGGGPWGQGTLVTVSS VL: AIQMTQSPSSLSASVGDRVTITCRASQGIRNDLGWYQQKPGKAPKLLIYAASSLQSGVPSRFSGSGSGTDFTLTISSLQPEDFATYYCLQDYNYPRTFGQGTKVEIKR | 0.0608 | 0.0786 | 118 | Kd [5]: 6.78 nM
antibody 481 (antibody, V domains shown) VH: EVQLVESGGGLIQPGGSLRLSCAASGFTVSSNYMSWVRQAPGKGLEWVSVIYSGGSTFYADSVKGRFTISRDNSKNTLYLQMNSLRAEDTAVYYCAREVAGTYDYWGQGTLVTVSS VL: DIQMTQSPSSVSASVGDRVTITCRASQGISSWLAWYQQKPGKAPKLLIYAASSLQSGVPSRFSGSGSGTDFTLTISSLQPEDFATYYCQQANSFPGGTFGPGTKVDIKR | 0.118 | 0.234 | 170 | Kd [5]: 14.1 nM
antibody 419 (antibody, V domains shown) VH: QVQLVQSGAEVKKPGASVKVSCKASGYTFTSYYMHWVRQAPGQGLEWMGIINPSGGSTSYAQKFQGRVTMTRDTSTSTVYMELSSLRSEDTAVYYCARDWTQSSGYDYYYGLDVWGQGTTVTVSS VL: not shown | – | – | 235 | –
antibody 434 (antibody, V domains shown) VH: QVQLVQSGAEVKKPGASVQVSCKASGYTFSDYYIFWVRQAPGQGLEWMGCINPKSGGAIYAQRFQGRVTMTRDTSFNTAYMEMNRLGSDDTAVYYCVTRGPPDIAASGFAWHLDVWGQGTTVTVSS VL: DIVMTQSPLSLPVTPGEPASISCRSSQSLLSSNGYNYLEWYLQKPGQSPQLLMYLGSNRASGVPDRFSGSGSGTDFTLKINRVEAEDVGVYYCMQALQTPLTFGGGTKVEIK | – | – | – | binding result [6]: no binding
